Assay results published in patent US20220348658A1, “ANTI-T CELL ANTIGEN-BINDING MOLECULE TO BE USED IN COMBINATION WITH CYTOKINE INHIBITOR” (Chugai Seiyaku Kabushiki Kaisha, priority 2019, published 2022).

Tests used:
[1] = system: Hepa1-6/hGPC3 cancer cells; assay: Syngeneic mouse model: post-administration of MR-16-1 and drug efficacy of GC33/2C11; format: in vivo, C57BL/6 mice
Description: In a study using a syngeneic mouse model, a study for evaluating the effect of post-administration of an anti-mouse IL6 receptor antibody, MR-16-1, on the drug efficacy of ERY974 surrogate antibodies was carried out as follows. Hepa1-6/hGPC3 cancer cells, which are mouse cancer cell line Hepa1-6 made to highly express human GPC3, were transplanted subcutaneously in C57BL/6 mice. The day of transplantation was set to day 0. On day 16, grouping was performed according to tumor size and body weight. On day 17, GC33/2C11 was first administered into the tail vein at 0.2 or 5 mg/kg, and two hours later, MR-16-1 was administered into the tail vein at 30 mg/kg. MR-16-1 was administered six times in total (on days 17, 21, 24, 28, 31, and day 35). GC33/2C11 was administered once, only on day 17.

[2] = system: Hepa1-6/hGPC3 cancer cells; assay: Syngeneic mouse model: pre-administration of MR-16-1 and drug efficacy of GC33/2C11; format: in vivo, C57BL/6 mice
Description: In a test using a syngeneic mouse model, a study for evaluating the effect of pre-administration of an anti-mouse IL6 receptor antibody, MR-16-1 (see Okazaki M, et al., Characterization of anti-mouse interleukin-6 receptor antibody, Immunol Lett. 2002 Dec. 3; 84(3):231-40; and Saito T, et al., Preparation of soluble murine IL-6 receptor and anti-murine IL-6 receptor antibodies, J. Immunol., 47 (1991), pp. 168-173), on the drug efficacy of ERY974 surrogate antibodies was carried out as follows. Hepa1-6/hGPC3 cancer cells, which are mouse cancer cell line Hepa1-6 made to highly express human GPC3, were transplanted subcutaneously in C57BL/6 mice. The day of transplantation was set to day 0. On day 18, grouping was performed according to tumor size and body weight. MR-16-1 was administered into the tail vein at 30 mg/kg on day 18. On day 19, the day after MR-16-1 administration, GC33/2C11 was administered into the tail vein at 0.2 and 5 mg/kg. MR-16-1 was administered six times in total (on days 18, 21, 25, 28, 32 and day 35). GC33/2C11 was administered once, only on day 19. GC33/2C11 was an antibody comprising the amino acid sequence of SEQ ID NO: 443 as the GPC3-side heavy chain, the amino acid sequence of SEQ ID NO: 444 as the GPC3-side light chain, the amino acid sequence of SEQ ID NO: 445 as the CD3-side heavy chain, and the amino acid sequence of SEQ ID NO: 446 as the CD3-side light chain.

B1: GC33/2C11: ERY974 surrogate antibody; GPC3-side chains SEQ ID NO: 443/444, CD3-side chains SEQ ID NO: 445/446 (protein)
chain 1: QVQLVQSGAEVKKPGASVKVSCKASGYTFTDYEMHWIRQPPGQGLEWIGAIDPKTGDTAYSQKFKGRVTLTADKSTSTAYMELSSLTSEDTAVYYCTRFYSYTYWGQGTLVTVSSAKTTPPSVYPLAPGSAAQTNSMVTLGCLVKGYFPEPVTVTWNSGSLSSGVHTFPAVLQSDLYTLSSSVTVPSSTWPSETVTCNVAHPASSTKVDKKIVPRDCGCKPCICTVKEVSKVFIFPPKPKDVLTITLTPKVTCVVVDISKDDPEVQFSWFVDDVEVHTAQTQPREEQFNSTFRSVSELPIMHQDWLNGKEFKCRVNSAAFPAPIEKTISKTKGRPKAPQVYTIPPPKEQMAKDKVSLTCMITDFFPEDITVEWQWNGQPAENYKNTQPIMDTDGSYFVYSELNVQKSNWEAGNTFTCSVLHEGLHNHHTEKSLSHSPGK
chain 2: DIVMTQSPLSLPVTPGEPASISCRSSQSLVHSNRNTYLHWYQQKPGQAPRLLIYKVSNRFSGVPDRFSGSGSGTDFTLKISRVEAEDVGVYYCSQNTHVPPTFGQGTKLEIKRADAAPTVSIFPPSSEQLTSGGASVVCFLNNFYPKDINVKWKIDGSERQNGVLNSWTDQDSKDSTYSMSSTLTLTKDEYERHNSYTCEATHKTSTSPIVKSFNRNEC
chain 3: EVQLVESGGGLVQPGKSLKLSCEASGFTFSGYGMHWVRQAPGRGLESVAYITSSSINIKYADAVKGRFTVSRDNAKNLLFLQMNILKSEDTAMYYCARFDWDKNYWGQGTMVTVSSAKTTPPSVYPLAPGSAAQTNSMVTLGCLVKGYFPEPVTVTWNSGSLSSGVHTFPAVLQSDLYTLSSSVTVPSSTWPSETVTCNVAHPASSTKVDKKIVPRDCGCKPCICTVKEVSKVFIFPPKPKDVLTITLTPKVTCVVVDISKDDPEVQFSWFVDDVEVHTAQTQPREEQFNSTFRSVSELPIMHQDWLNGKEFKCRVNSAAFPAPIEKTISKTKGRPKAPQVYTIPPPKEQMAKDKVSLTCMITDFFPEDITVEWQWNGQPAENYKNTQPIMRTDGSYFVYSKLNVQKSNWEAGNTFTCSVLHEGLHNHHTEKSLSHSPGK
chain 4: DIQMTQSPSSLPASLGDRVTINCQASQDISNYLNWYQQKPGKAPKLLIYYTNKLADGVPSRFSGSGSGRDSSFTISSLESEDIGSYYCQQYYNYPWTFGPGTKLEIKRADAAPTVSIFPPSSEQLTSGGASVVCFLNNFYPKDINVKWKIDGSERQNGVLNSWTDQDSKDSTYSMSSTLTLTKDEYERHNSYTCEATHKTSTSPIVKSFNRNEC
modifications: H0000-mF18mN4; GL4-mk1; 2C11VH-mF18mP4; 2C11VL-mk1
- Antitumor activity (%) ([1]; Group 2: GC33/2C11 0.2 mg/kg tail vein, day 17, alone): 102%
- Antitumor activity (%) ([1]; Group 3: GC33/2C11 5 mg/kg tail vein, day 17, alone): 109%
- Antitumor activity (%) ([1]; Group 5: GC33/2C11 0.2 mg/kg day 17, 2 hours before MR-16-1 (30 then 15 mg/kg, day 17, 21, 24, 28, 31, 35)): 103%
- Antitumor activity (%) ([1]; Group 6: 5 mg/kg day 17, 2 hours before MR-16-1 (30 then 15 mg/kg, day 17, 21, 24, 28, 31, 35)): 109%
- Antitumor activity (%) ([2]; Group 2: GC33/2C11 0.2 mg/kg tail vein, day 19, alone): 80%
- Antitumor activity (%) ([2]; Group 3: GC33/2C11 5 mg/kg tail vein, day 19, alone): 110%
- Antitumor activity (%) ([2]; Group 5: GC33/2C11 0.2 mg/kg day 19 after pre-administration of MR-16-1 (30 then 15 mg/kg, day 18, 21, 25, 28, 32, 35)): 99%
- Antitumor activity (%) ([2]; Group 6: 5 mg/kg day 19 after pre-administration of MR-16-1 (30 then 15 mg/kg, day 18, 21, 25, 28, 32, 35)): 107%
